From US20210002363A1 (PHANES THERAPEUTICS, published 2021)
Where a chain is given by its changes, count along the chain named.

Key:
[1] = target: T1, Recombinant extracellular domain of human FOLR1 (Novoprotein, Cat#: C784) (human, UniProt P15328 25-233, limits assumed); assay: SPR (Biacore 8k), mAb captured on protein A chip, recombinant FOLR1 as analyte, 1:1 model
T1 construct: Bought reagent; also called recombinant FOLR1; immobilized FOLR1 extracellular domain
Method: The interaction of the chimeric anti-FOLR1 mAbs and FOLR1 was measured by Surface Plasmon Resonance (SPR) (Biacore 8k, GE Healthcare). Briefly, an anti-FOLR1 mAb was immobilized to a protein A sensor chip (GE Healthcare, Cat#: 29-1275-56) in HBS-P buffer (0.01 M HEPES pH 7.4, 0.15 M NaCl, 0.05% v/v Surfactant P20) with an injection flow rate at […]. The recombinant FOLR1 (Novoprotein, Cat#: C784) at variant concentrations was loaded with the flow rate of 30 μL/min in HBS-P buffer. Following antigen loading, the surface was regenerated with 10 mM glycine-HCl (pH 1.5). Sensor grams were fit with a 1:1 binding model using Biacore 8k evaluation software (GE Healthcare).

[2] = target: T1, Recombinant extracellular domain of …; assay: ELISA on immobilized FOLR1 extracellular domain; O.D. 450 nm
[3] = target: T1, Recombinant extracellular domain of …; assay: as above; remark: listed apart in the source
[4] = target: T2, FOLR1 on SK-OV-3 cells (ATCC HTB-77) (Homo sapiens (Human), UniProt P15328 25-234); assay: FACS on SK-OV-3 cells; Alexa Fluor 488 F(ab')2 goat anti-human IgG Fc; MFI
T2 construct: Endogenous FOLR1 of the cell line; also called cells that are known to express FOLR1
T2 sequence (P15328 25-234 limits assumed): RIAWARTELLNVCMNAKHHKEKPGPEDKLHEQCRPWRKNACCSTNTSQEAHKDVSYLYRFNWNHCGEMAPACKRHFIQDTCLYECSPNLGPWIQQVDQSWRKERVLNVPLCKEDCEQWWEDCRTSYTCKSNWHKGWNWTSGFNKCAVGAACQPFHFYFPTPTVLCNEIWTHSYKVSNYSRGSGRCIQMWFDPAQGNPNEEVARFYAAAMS
Method: To assess the binding of the chimeric anti-FOLR1 mAbs to cells that are known to express FOLR1, SK-OV-3 (ATCC® HTB-77™) cells were plated at 80,000 cells per well on a 96-well non-binding U-bottom plate (Greiner Bio-One, Cat#: 650901). In some experiments, 90,000 cells per well were used. The cells were incubated in 50 μL FACS buffer (HBSS with 0.1% BSA and 0.05% sodium azide) containing mAbs at different concentrations on ice for 15 minutes. After wash, cells were incubated in 50 μL FACS buffer containing 3.5 μg/mL F(ab′)2-Goat anti-Human IgG Fc conjugated to Alexa Fluor® 488 (Invitrogen, Cat#: H10120) on ice for 15 minutes in dark and washed again. Cells were analyzed using an Attune NxT flow cytometer. MFI, mean fluorescence intensity.

[5] = target: T1, Recombinant extracellular domain of …; assay: ELISA on plate-coated recombinant human FOLR1 extracellular domain; anti-human IgG-HRP; O.D. 450 nm
Method: The Purified chimeric mAbs were tested in an ELISA assay for their ability to bind to immobilized human FOLR1. Recombinant extracellular domain of human FOLR1 (Novoprotein, Cat#: C784) in carbonate coating buffer was coated on a 96-well plate at room temperature for 1 hour. The plate is blocked by 5% BSA in TBST for 1 hour at room temperature. In each well of an individual plate, mAbs at various concentrations were incubated for 1 hour at room temperature. The plate was washed and the binding to FOLR1 was detected by anti-human IgG conjugated to horseradish peroxidase (hIgG-HRP) (ThermoFisher Scientific, Cat#: H10007) with incubation for 1 hour at room temperature. Then after washing, the ELISA was developed using One-step Detection Solution (ThermoFisher Scientific, Cat#: 34028) and measured as the absorbance at 450 nm.

[6] = target: T3, full-length human FOLR1 on stably transfected CHO cells (human, UniProt P15328 25-234); assay: FACS on CHO cells stably expressing full-length human FOLR1; PE goat anti-mouse IgG; MFI
T3 construct: also called CHO cells stably expressing human FOLR1
T3 sequence (P15328 25-234 limits assumed): as above
Method: CHO cells stably transfected with full-length human FOLR1 were transferred to a 96-well plate at 200,000 cells/well, washed once with FACS buffer (1×PBS, pH6.8+2% FBS) and incubated with purified mouse anti-FOLR1 mAbs from hybridoma supernatants at various concentrations for 15 minutes on ice. Cells were then centrifuged at 1,000 rpm for 5 minutes and washed with FACS buffer three times. The cells were incubated with PE-conjugated goat anti-mouse IgG polyclonal antibodies and incubated on ice for another 15 minutes. Cells were then washed with FACS buffer three times and then resuspended in FACS buffer containing 0.1 μg/ml PI (propidium iodide) for live/dead cell gating. Cells were then run through the FACS Caliber instrument and the data were analyzed by the Flowjo software. MFI, mean fluorescence intensity.

[7] = target: T2, FOLR1 on SK-OV-3 cells (ATCC HTB-77); assay: FACS on SK-OV-3 cells; MFI

T1 sequence (P15328 25-233 limits assumed): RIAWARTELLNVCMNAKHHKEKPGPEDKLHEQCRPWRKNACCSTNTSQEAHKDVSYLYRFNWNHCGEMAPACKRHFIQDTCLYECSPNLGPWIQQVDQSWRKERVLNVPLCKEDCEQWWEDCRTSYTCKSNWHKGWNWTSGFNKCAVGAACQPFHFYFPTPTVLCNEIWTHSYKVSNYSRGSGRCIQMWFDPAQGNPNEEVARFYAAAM

B1: chimeric anti-FOLR1 mAb F20 (antibody, V domains shown)
VH: QVQLQQSGAELVKPGASVQLSCKASGYTFASYYLYWVKQRPGQGLEWIGEINPRSGGTNFNEKFKSKATVTVDKSSSTAYMQLSSLTSEDSAVYYCSRSGRLRGFYTMDYWGQGTSVTVSS
VL: NIVMTQSPKSMSVSVGERVTLSCKAGENVGSYVSWYQQKPEQSPELLIYGASNRYTGVPDRFTGSGSATDFTLTISSVQAEDLADYYCGQTYRFLTFGAGTKLELK
notes: also called Chimeric mAb F20
B1 was tested, and the Kd [1] was 1 nM.

B2: F5-H2L1 (antibody, V domains shown)
VH: EVQLVESGGGLVQPGGSLRLSCAVSGFTFSNYGMSWVRQAPGKGLEWVATISSGGSYTYYPDSVKGRFTISRDNSKNTLYLQMNSLRAEDTAVYYCSTQGSSGYVGYWGQGTLVTVSS
VL: DIQMTQSPSSVSASVGDRVTITCKASQDITNFIGWYQHKPGKAPKLLISYTSILESGVPSRFSGSGSGRDYTLTISSLQPEDFATYYCLQYYNLWTFGGGTKVEIK
notes: also called humanized F5 mAb H2L1
With B2 the “EC50 (read off the curve)” value [2] was roughly 0.3 nM.

B3: F5-H3L1 (antibody, V domains shown)
VH: B2 VH with N84S
VL: B2 VL
notes: also called humanized F5 mAb H3L1
B3: binds [3].

B4: F5-H3L2 (antibody, V domains shown)
VH: B2 VH with N84S
VL: B2 VL with R69T
notes: also called humanized F5 mAb H3L2
B4: binds [3].

B5: chimeric anti-FOLR1 mAb F7 (antibody, V domains shown)
VH: EFQLQQSGPELVKPGASVKISCKASGYSFTDYNMNWVKQSNGKSLEWIGVIDPNYGTTNYNQKFVGKATLTVDQSSITAYMQLNSLTAEDSAVYFCAIKGYGNPAAYWGQGTLVTVSA
VL: DIQMTQSPSSLSASLGGKVTITCKASQDINKYLAWYQHEPGKGPRLLIRYTSILESGIPSRFSGSGSGRDYSFSISNLEPEDIATYYCLQYYNLWTFGGGTKLEIK
notes: also called Chimeric mAb F7
B5 was tested, and the “EC50 (read off the curve)” value [4] was roughly 0.2 nM, the Kd [1] was 2.33 nM and the “EC50 (read off the curve)” value [5] was roughly 0.1 nM.

B6: mouse anti-FOLR1 mAb F7 (purified from hybridoma supernatant) (antibody, V domains shown)
VH: B5 VH
VL: B5 VL
notes: Mouse antibody from hybridoma, purified on Protein A, detected with anti-mouse IgG; also called mAb clone F7
B6 was tested, and the “EC50 (read off the curve)” value [6] was roughly 0.1 µg/mL.

B7: mouse anti-FOLR1 mAb F8 (purified from hybridoma supernatant) (antibody, V domains shown)
VH: EVMLVESGGGLVKPGGSLKLSCVASGFTLSTYAMSWVRQTPEKRLEWVATISGGGGDTYHLDTVKGRFTISRDNAKNTLYLQMSSLRSEDTALYYCARQSHYGSSYYFDNWGQGTTLTVSS
VL: DIQMTQSPASLSASVGEIVTIICRVSENIDSYLAWYQQKQGKSPQLLVYAATNLADGVPSRFSGSGSGSQYSLKINSLQSEDVARYYCQHYYTTPPTFGGGTKLDIK
notes: Mouse antibody from hybridoma, purified on Protein A, detected with anti-mouse IgG; also called mAb clone F8
With B7 the “EC50 (read off the curve)” value [6] was roughly 0.5 µg/mL.

B8: chimeric anti-FOLR1 mAb F8 (antibody, V domains shown)
VH: B7 VH
VL: B7 VL
notes: also called Chimeric mAb F8
Binder B8 has a Kd [1] of 0.721 nM.

B9: F20-H3L1 (antibody, V domains shown)
VH: QVQLVQSGAEVKKPGSSVKVSCKASGYTFASYYLYWVRQAPGQGLEWIGEINPRSGGTNFNEKFKSKATVTVDKSTNTAYMELSSLRSEDTAVYYCSRSGRLRGFYTMDYWGQGTLVTVSS
VL: DIVMTQSPDSLAVSLGERATINCKAGENVGSYVSWYQQKPGQPPKLLIYGASNRYTGVPDRFSGSGSATDFTLTISSLQAEDVAVYYCGQTYRFLTFGQGTKVEIK
notes: also called humanized F20 mAb H3L1
For B9, the “EC50 (read off the curve)” value [7] was 1 to 2 nM.

B10: F20-H1L1 (antibody, V domains shown)
VH: B9 VH with K67R, N77S
VL: B9 VL
notes: also called humanized F20 mAb H1L1
For B10, the “EC50 (read off the curve)” value [7] was 1 to 2 nM.

B11: F20-H3L2 (antibody, V domains shown)
VH: B9 VH
VL: B9 VL with P43S
notes: also called humanized F20 mAb H3L2
For B11, the “EC50 (read off the curve)” value [7] was 1 to 2 nM.

B12: mouse anti-FOLR1 mAb F17 (purified from hybridoma supernatant) (antibody, V domains shown)
VH: DVQLVESGGGLVQPGGSRKLSCAASGFTFSDFGMHWIRQAPERGLEWVAYMSYTPGTFHYADTVKDRFFISRDNAKNTLFLQMTSLRSDDTAMYYCARVHVGTVDYWGQGTSVTVSS
VL: DVVLTQSPATLSVTPGDSVSLSCRASQNINNNLHWFQQKSHESPRLLIKYASQSISGIPSRFSGSGSGTDFTLSINNVETEDFGIYFCQQSNSWPALTFGTGTKVELK
notes: Mouse antibody from hybridoma, purified on Protein A, detected with anti-mouse IgG; also called mAb clone F17
B12 was tested, and the “EC50 (read off the curve)” value [6] was roughly 0.3 µg/mL.

B13: chimeric anti-FOLR1 mAb F4 (antibody, V domains shown)
VH: EVQLVESGGGLVKPGGSLKLSCAASGFTFSDYGMHWVRQAPEKGLEWVAFISSGSNTIYYADIVKGRFAISRDNAKNTLFLQMASLRSEDTALYYCARLAEWDVAYWGQGTLVTVSA
VL: DIVLTQSPATLSVTPGDRISLSCRASQNINNNLHWYQQKSHESPRLLIKFASQSISGIPSRFSGSGSGTDFTLNINGVETEDFGMYFCQQIYSWPQLTFGAGTRLELK
notes: also called Chimeric mAb F4
With B13 the “EC50 (read off the curve)” value [4] was roughly 0.5 nM, the Kd [1] was 0.547 nM and the “EC50 (read off the curve)” value [5] was roughly 0.2 nM.

B14: mouse anti-FOLR1 mAb F4 (purified from hybridoma supernatant) (antibody, V domains shown)
VH: B13 VH
VL: B13 VL
notes: Mouse antibody from hybridoma, purified on Protein A, detected with anti-mouse IgG; also called mAb clone F4
For B14, the “EC50 (read off the curve)” value [6] was roughly 1 µg/mL.

B15: chimeric anti-FOLR1 mAb F19 (antibody, V domains shown)
VH: EVKLDETGGGLVQPGRPMKLSCVASGFTFSDYWMNWVRQSPDKGLEWVAQIGNKFHNYETYYSDSVKGRFTISRDDSKSSVYLQMNSLRVEDTGIYYCTKLGRGYYVMDYWGQGTSVTVSS
VL: DIQMTQTTSSLSASLGDRVTLNCRASQDITNHLNWFQQKPDGTFQLLIYYTSRLHSGVPSRFSGSGSGTDYSLTISNLEQEDFATYFCQQDSQHPWTFGGGTKLEIK
notes: also called Chimeric mAb F19
Work on B15 yielded a Kd [1] of 11.8 nM.
